Earlier results, collected in article doi:10.64898/2025.12.23.696170.

Key:
ATR1 (Homo sapiens) = ATR1 (Homo sapiens) (UniProt P30556)
ATR2 (Homo sapiens) = ATR2 (Homo sapiens) (UniProt P50052)
UniProt P50052, sequence (P50052 whole entry): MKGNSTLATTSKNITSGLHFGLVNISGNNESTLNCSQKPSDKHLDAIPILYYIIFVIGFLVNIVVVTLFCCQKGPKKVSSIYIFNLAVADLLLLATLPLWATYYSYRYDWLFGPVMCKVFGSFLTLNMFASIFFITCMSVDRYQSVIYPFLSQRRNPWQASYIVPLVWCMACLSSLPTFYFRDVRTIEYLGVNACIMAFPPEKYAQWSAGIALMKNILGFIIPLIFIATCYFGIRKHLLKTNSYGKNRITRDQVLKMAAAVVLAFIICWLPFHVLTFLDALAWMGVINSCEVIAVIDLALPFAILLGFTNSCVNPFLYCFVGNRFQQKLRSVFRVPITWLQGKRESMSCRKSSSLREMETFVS

UniProt P30556, sequence (P30556 whole entry): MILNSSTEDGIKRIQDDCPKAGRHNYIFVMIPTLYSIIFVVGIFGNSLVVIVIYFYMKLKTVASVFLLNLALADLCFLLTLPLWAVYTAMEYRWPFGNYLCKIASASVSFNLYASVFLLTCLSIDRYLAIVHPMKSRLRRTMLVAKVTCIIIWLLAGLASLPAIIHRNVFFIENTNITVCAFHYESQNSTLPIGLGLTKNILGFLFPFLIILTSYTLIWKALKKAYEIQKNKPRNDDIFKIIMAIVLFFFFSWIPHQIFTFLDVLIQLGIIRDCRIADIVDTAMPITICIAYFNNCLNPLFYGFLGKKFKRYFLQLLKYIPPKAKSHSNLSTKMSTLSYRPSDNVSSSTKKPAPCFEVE

Ki (ATR1 (Homo sapiens)): 0.2 nM
Ki (ATR2 (Homo sapiens)): 0.3 nM
Substance: Angiotensin II (from UniProt P01019)
